Data on 3 molecules can be found in US6858210B1, “Therapeutic and diagnostic domain 1 β2GPI polypeptides and methods of using same” (La Jolla Pharmaceutical Co., priority 1998, dated 2005).

The subject of assay [1] is affinity purified β2GPI-dependent antiphospholipid antibody. The experiment in a line: Cardiolipin based ELISA, recombinant β2GPI proteins bound to cardiolipin coated wells. The class given is binding, human. The following applies: cardiolipin coated plates. On the procedure:
Microtiter plates (Immulon 1 #3350 from Dynex Technologies) were coated with 30 μl of a 50 μg/ml solution of cardiolipin in ethanol, dried overnight at 4° C., washed three times with PBS, pH 7.2, and blocked for one hour at room temperature with 75 μl of 5% (wt/v) fish gelatin, (Hipure Liquid Gelatin, Norland Products Inc. 695 Joyce Kilmer Ave., New Brunswick N.J., USA). The plates were washed three times with PBS, charged with 50 μl of full length recombinant β2GPI at 10 μg/ml in 5% fish gelatin and incubated at 37° C. for one hour. […] The optical density, at 550 nm, was determined by reading the plates in a microplate autoreader (Bio-Teck Instruments, model EL311).
Seven different recombinant β2GPI mutant proteins were examined to determine if they could support the direct binding of affinity purified β2GPI-dependent antiphospholipid antibody preparations in the presence of anionic phospholipid. All seven recombinant mutant β2GPI were assayed with rabbit anti-β2GPI and with an affinity purified β2GPI-dependent antiphospholipid antibody preparation. Each mutant recombinant β2GPI protein was tested, in a dose dependent fashion and GST-6his was included as a negative control. The recombinant mutant β2GPI proteins were bound to microtiter plates that had previously been coated with cardiolipin. […]
On the technique in general: An ELISA detects its analyte on a solid surface through an enzyme-linked reagent.

For assay [2], the target named is affinity purified β2-GPI domain 1 specific antibodies from patients 6701 and 6626. The experiment in a line: Surface plasmon resonance Kd determination on immobilized antibodies. The following applies: read-out: Apparent equilibrium dissociation constant. In kind it is binding, human. Here is the method:
Reagents. CM5 chips, NHS and EDC and HBS-EP buffer were from BIAcore. Human pooled normal IgG (Zymed) was immobilized in a separate flow cell on the chip and used as a negative control. Affinity purified 2-GPI domain 1 specific antibodies from 2 patients (6701 and 6626) were immobilized in separate flow cells.
Surface Plasmon Resonance. All experiments were done on a BIAcore™ 2000 instrument at 25° C. with a flow rate of 10 μL/minute. Chip equilibration and binding studies were performed with degassed HBS-EP buffer, which consists of 0.01 M HEPES pH 7.4, 0.15 M NaCl, 3 mM EDTA and 0.005% (v/v) surfactant β20. […]
Titrations. […] Since the approach to binding equilibrium was incomplete during the measurement period, the equilibrium binding value (Req) was determined by fitting the association curves to the following equation using the manufacturer software (BiaEvaluation version 2.2, Uppsala, Sweden)): Rt=Req(1−e^−ks(t−t0))+R0 where Rt is the measured BIAcore response at time t, Req is the equilibrium plateau response, t is time, t0 is initial time, ks is an apparent association constant (ks=kaC+kdis where ka is the association constant, C is the analyte concentration and kdis is the dissociation constant), and R0 is a response offset, (Marquart-Levenberg algorithm). […]

For assay [3], the system named is antiphospholipid antibody in plasma from patient 6501. The assay can be described thus: Competitive antibody binding ELISA with patient plasma on β2GPI coated plates. Details: species or system human. The note with it: plasma patient 6501, 1:200. On the procedure:
Nunc Maxisorp microplates (Nalge Nunc International, Denmark) were coated with 100 μL/well of β2GPI at 2.5 μg/mL in PBS, incubated for 2 hours at room temperature, and blocked for 2 hours at room temperature with 250 μl/well of 2% nonfat milk with […] (Sigma Chemical Co.). […] After incubation for one hour at room temperature the plates were washed 5× with TBS. To each well was added 100 μL of alkaline phosphatase-conjugated anti-human IgG, gamma chain specific (Zymed) diluted 1:1000 in 2% nonfat milk with 0.4% Tween-80. After one hour at room temperature the plates were washed 5× with TBS. To each well was added 100 μl PPMP chromogenic substrate solution for color development at room temperature. Optical absorbance per well was determined at A550nm in a commercial microplate reader (Bio-Tek Instruments EL3 11).

Assay [4] deals with affinity purified β2GPI-dependent antiphospholipid antibody preparation 6641 (from patient 6641). The experiment in a line: comp. inhibition ELISA.
Assay [5] has as its target β2GPI-dependent antiphospholipid antibody from patient 6701. The assay can be described thus: comp. inhibition ELISA.
For assay [6], the target named is β2GPI-dependent antiphospholipid antibody from patient 6501. The assay can be described thus: comp. inhibition ELISA.
The target of assay [7] is affinity purified β2GPI-dependent antiphospholipid antibody from patient 7104. The assay can be described thus: comp. inhibition ELISA.
For assay [8], the target named is affinity purified β2GPI-dependent antiphospholipid antibody from patient 7101. The experiment in a line: comp. inhibition ELISA.
Assay [9] deals with affinity purified β2GPI-dependent antiphospholipid antibody from patient 7008. The assay can be described thus: comp. inhibition ELISA.
Assay [10] concerns the target affinity purified β2GPI-dependent antiphospholipid antibody from patient 6509. The assay can be described thus: comp. inhibition ELISA.
Assay [11] concerns the target affinity purified β2GPI-dependent antiphospholipid antibody from patient 6632. The experiment in a line: comp. inhibition ELISA.
For assay [12], the target named is β2GPI-dependent antiphospholipid antibody from patient 6626. The assay can be described thus: comp. inhibition ELISA.
For assay [13], the target named is β2GPI-dependent antiphospholipid antibody from patient 7015. The assay can be described thus: comp. inhibition ELISA.
Assay [14] addresses affinity purified β2GPI-dependent antiphospholipid antibody from patient 6203. The experiment in a line: comp. inhibition ELISA.
For assay [15], the target named is affinity purified β2GPI-dependent antiphospholipid antibody from patient 6652. The experiment in a line: comp. inhibition ELISA.
In assay [16] the target is affinity purified β2GPI-dependent antiphospholipid antibody from patient 6644. The assay can be described thus: comp. inhibition ELISA.

Where two headings read alike, the source gives them in different places.

B1: 12345: recombinant full length human β2GPI (domains 1-5) with C-terminal GlyHis6, baculovirus expressed (protein)
chain: GRTCPKPDDLPFSTVVPLKTFYEPGEEITYSCKPGYVSRGGMRKFICPLTGLWPINTLKCTPRVCPFAGILENGAVRYTTFEYPNTISFSCNTGFYLNGADSAKCTEEGKWSPELPVCAPIICPPPSIPTFATLRVYKPSAGNNSLYRDTAVFECLPQHAMFGNDTITCTTHGNWTKLPECREVKCPFPSRPDNGFVNYPAKPTLYYKDKATFGCHDGYSLDGPEEIECTKLGNWSAMPSCKASCKLPVKKATVVYQGERVKIQEKFKNGMLHGDKVSFFCKNKEKKCSYTEDAQCIDGTIEVPKCFKEHSSLAFWKTDASDVKPCGHHHHHH
As to B1, in assay [1], the “direct binding of patient antibody” value is on record as “readily detected”.

B2: 1----: recombinant β2GPI protein with domain 1 only (SEQ ID NO:4 region), His6 tail (protein)
chain: GRTCPKPDDLPFSTVVPLKTFYEPGEEITYSCKPGYVSRGGMRKFICPLTGLWPINTLKCTPRVGHHHHHH
For the molecule B2, the Kd in [2] (immobilized antibody from patient 6626) was 0.333 ± 0.018 µM; in [2] (immobilized antibody from patient 6701) it was 0.417 ± 0.036 µM. In addition, the “competition for antiphospholipid antibody binding to β2GPI” value in assay [3] was “Competitive binding is also exhibited”.

B3: recombinant β2GPI domain 5 with GlyHis6 (----5) (protein)
chain: GRASCKLPVKKATVVYQGERVKIQEKFKNGMLHGDKVSFFCKNKEKKCSYTEDAQCIDGTIEVPKCFKEHSSLAFWKTDASDVKPCGHHHHHH
B3: the IC50 in assay [4], in assay [5], in assay [6], in [7], in assay [8] and in assay [9] was more than 47 µM in each case. The IC50 in [10], in [11], in assay [12], in [13], in [14] and in [15] was more than 47 µM in each case. The half-inhibitory concentration (IC50) (usually the concentration needed to halve the response being measured) in assay [16] is more than 47 µM. Moreover, the Max inhibition came to 10% in [4]; 10% in assay [5]; 10% in assay [6]; 0% in assay [7]; 5% in assay [8]; 20% in assay [9]. For the same molecule, the Max inhibition in assay [10] is 10%; in [11], 10%; in [12], 10%; in assay [13], 10%; in assay [14] it was 5%; in assay [15], 15%. In [16], this molecule had a Max inhibition of 10%.
